Measurements taken from patent publication US20190135928A1 (Bristol-Myers Squibb, published 2019).
Where a chain is given by its changes, count along the chain named.

How the values were obtained:
Assay in all cases: cell-based or functional assay
human TL1A (in-house) [1] = target: T1, human TL1A (in-house) (human, UniProt O95150 57-251, limits assumed)
T1 sequence: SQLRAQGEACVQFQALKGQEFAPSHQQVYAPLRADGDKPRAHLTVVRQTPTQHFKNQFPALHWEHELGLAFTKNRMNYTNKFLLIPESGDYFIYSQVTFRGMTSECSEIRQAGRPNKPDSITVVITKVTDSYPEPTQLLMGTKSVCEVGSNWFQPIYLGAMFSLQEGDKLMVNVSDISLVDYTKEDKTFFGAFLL

[2] = target: T2, cynomolgus TL1A (in-house) (cynomolgus monkey, UniProt G7PRK8 57-251)
T2 sequence: T1 sequence with F13L, A15D, F54L, I93V

human TL1A (in-house) [3] = target: T1, human TL1A (in-house); remark: listed apart in the source
human TL1A (in-house) [4] = target: T1, human TL1A (in-house); remark: listed apart in the source
human TL1A (in-house) [5] = target: T1, human TL1A (in-house); remark: listed apart in the source

EC50, TL1A-driven phospho-NFkB in Hu Whole Blood(2.45 mg/ml), CD3+CD4-CD8- T-cells, Donor A, no ELN ref printed in this row (human TL1A (in-house) [1]): 0.83 nM
EC50, TL1A-driven phospho-NFkB in Hu Whole Blood(2.45 mg/ml), CD4+ T-cells, Donor A, ELN ref A010F-003 (human TL1A (in-house) [1]): 2.64 nM
EC50, TL1A-driven phospho-NFkB in Hu Whole Blood(2.45 mg/ml), CD4+ T-cells, Donor A, ELN ref A010F-007 (human TL1A (in-house) [1]): 0.77 nM
EC50, TL1A-driven phospho-NFkB in Hu Whole Blood(2.45 mg/ml), CD4+ T-cells, Donor B, ELN ref A010F-003 (human TL1A (in-house) [1]): 2.94 nM
EC50, TL1A-driven phospho-NFkB in Hu Whole Blood(2.45 mg/ml), CD4+ T-cells, Donor B, ELN ref A010F-007 (human TL1A (in-house) [1]): 3.24 nM
EC50, TL1A-driven phospho-NFkB in Hu Whole Blood(2.45 mg/ml), CD8+ T-cells, Donor A, no ELN ref printed in this row (human TL1A (in-house) [1]): 0.85 nM
EC50, TL1A + IL-12 + IL-18 driven IFNg (Cyno PBMCs)(2.45 mg/ml), Donor A, ELN ref 97305-067 [2]: 0.122 nM
EC50, TL1A + IL-12 + IL-18 driven IFNg (Cyno PBMCs)(2.45 mg/ml), Donor A, ELN ref 97305-071 [2]: 0.154 nM
EC50, TL1A + IL-12 + IL-18 driven IFNg (Cyno PBMCs)(2.45 mg/ml), Donor A, ELN ref 97305-074 [2]: 0.105 nM
EC50, TL1A + IL-12 + IL-18 driven IFNg (Cyno PBMCs)(2.45 mg/ml), Donor A, ELN ref 97305-076 [2]: 0.097 nM
EC50, TL1A + IL-12 + IL-18 driven IFNg (Cyno PBMCs)(2.45 mg/ml), Donor B, ELN ref 97305-067 [2]: 0.164 nM
EC50, TL1A + IL-12 + IL-18 driven IFNg (Cyno PBMCs)(2.45 mg/ml), Donor B, ELN ref 97305-071 [2]: 0.133 nM
EC50, TL1A + IL-12 + IL-18 driven IFNg (Cyno PBMCs)(2.45 mg/ml), Donor B, ELN ref 97305-074 [2]: 0.129 nM
EC50, TL1A + IL-12 + IL-18 driven IFNg (Cyno PBMCs)(2.45 mg/ml), Donor B, ELN ref 97305-076 [2]: 0.093 nM
EC50, TL1A + IL-12 + IL-18 driven IFNg (Hu WB)(2.45 mg/ml), Donor A, ELN ref 97305-029 (human TL1A (in-house) [3]): 0.32 nM
EC50, TL1A + IL-12 + IL-18 driven IFNg (Hu WB)(2.45 mg/ml), Donor A, ELN ref 97305-033 (human TL1A (in-house) [3]): 0.284 nM
EC50, TL1A + IL-12 + IL-18 driven IFNg (Hu WB)(2.45 mg/ml), Donor B, ELN ref 97305-029 (human TL1A (in-house) [3]): 0.54 nM
EC50, TL1A + IL-12 + IL-18 driven IFNg (Hu WB)(2.45 mg/ml), Donor B, ELN ref 97305-033 (human TL1A (in-house) [3]): 0.108 nM
EC50, TL1A + IL-12 + IL-18 driven IFNg (Hu Tcells) (2.45 mg/ml), Donor A, ELN ref 97305-062 (human TL1A (in-house) [4]): 0.18 nM
EC50, TL1A + IL-12 + IL-18 driven IFNg (Hu Tcells) (2.45 mg/ml), Donor A, ELN ref 97305-064 (human TL1A (in-house) [4]): 0.235 nM
EC50, TL1A + IL-12 + IL-18 driven IFNg (Hu Tcells) (2.45 mg/ml), Donor A, ELN ref 97305-066 (human TL1A (in-house) [4]): 0.331 nM
EC50, TL1A + IL-12 + IL-18 driven IFNg (Hu Tcells) (2.45 mg/ml), Donor A, ELN ref 97305-077 (human TL1A (in-house) [4]): 0.241 nM
EC50, TL1A + IL-12 + IL-18 driven IFNg (Hu Tcells) (2.45 mg/ml), Donor A, ELN ref 97305-082 (human TL1A (in-house) [4]): 0.034 nM
EC50, TL1A + IL-12 + IL-18 driven IFNg (Hu Tcells) (2.45 mg/ml), Donor A, ELN ref 99932-003797 (human TL1A (in-house) [4]): 0.355 nM
EC50, TL1A + IL-12 + IL-18 driven IFNg (Hu Tcells) (2.45 mg/ml), Donor A, ELN ref 99932-004083 (human TL1A (in-house) [4]): 0.393 nM
EC50, TL1A + IL-12 + IL-18 driven IFNg (Hu Tcells) (2.45 mg/ml), Donor A, ELN ref 99932-004084 (human TL1A (in-house) [4]): 0.367 nM
EC50, TL1A + IL-12 + IL-18 driven IFNg (Hu Tcells) (2.45 mg/ml), Donor A, ELN ref 99932-004439 (human TL1A (in-house) [4]): 0.185 nM
EC50, TL1A + IL-12 + IL-18 driven IFNg (Hu Tcells) (2.45 mg/ml), Donor A, ELN ref 99932-004774 (human TL1A (in-house) [4]): 0.22 nM
EC50, TL1A + IL-12 + IL-18 driven IFNg (Hu Tcells) (2.45 mg/ml), Donor A, ELN ref 99932-004955 (human TL1A (in-house) [4]): 0.172 nM
EC50, TL1A + IL-12 + IL-18 driven IFNg (Hu Tcells) (2.45 mg/ml), Donor B, ELN ref 97305-062 (human TL1A (in-house) [4]): 0.259 nM
EC50, TL1A + IL-12 + IL-18 driven IFNg (Hu Tcells) (2.45 mg/ml), Donor B, ELN ref 97305-064 (human TL1A (in-house) [4]): 0.199 nM
EC50, TL1A + IL-12 + IL-18 driven IFNg (Hu Tcells) (2.45 mg/ml), Donor B, ELN ref 97305-066 (human TL1A (in-house) [4]): 0.347 nM
EC50, TL1A + IL-12 + IL-18 driven IFNg (Hu Tcells) (2.45 mg/ml), Donor B, ELN ref 97305-077 (human TL1A (in-house) [4]): 0.258 nM
EC50, TL1A + IL-12 + IL-18 driven IFNg (Hu Tcells) (2.45 mg/ml), Donor B, ELN ref 97305-082 (human TL1A (in-house) [4]): 0.039 nM
EC50, TL1A + IL-12 + IL-18 driven IFNg (Hu Tcells) (2.45 mg/ml), Donor B, ELN ref 99932-003797 (human TL1A (in-house) [4]): 0.312 nM
EC50, TL1A + IL-12 + IL-18 driven IFNg (Hu Tcells) (2.45 mg/ml), Donor B, ELN ref 99932-004083 (human TL1A (in-house) [4]): 0.311 nM
EC50, TL1A + IL-12 + IL-18 driven IFNg (Hu Tcells) (2.45 mg/ml), Donor B, ELN ref 99932-004084 (human TL1A (in-house) [4]): 0.303 nM
EC50, TL1A + IL-12 + IL-18 driven IFNg (Hu Tcells) (2.45 mg/ml), Donor B, ELN ref 99932-004439 (human TL1A (in-house) [4]): 0.194 nM
EC50, TL1A + IL-12 + IL-18 driven IFNg (Hu Tcells) (2.45 mg/ml), Donor B, ELN ref 99932-004774 (human TL1A (in-house) [4]): 0.319 nM
EC50, TL1A + IL-12 + IL-18 driven IFNg (Hu Tcells) (2.45 mg/ml), Donor B, ELN ref 99932-004955 (human TL1A (in-house) [4]): 0.211 nM
EC50, TL1A + IL-12 + IL-18 driven IFNg (Hu NKcells)(2.45 mg/ml), Donor A, ELN ref 97305-070 (human TL1A (in-house) [5]): 0.16 nM
EC50, TL1A + IL-12 + IL-18 driven IFNg (Hu NKcells)(2.45 mg/ml), Donor A, ELN ref 97305-075 (human TL1A (in-house) [5]): 0.147 nM
B1: TL1A antibody 10A4.F7.2E8 huIgG4 (antibody, V domains shown)
VH: QLQLQESGPGLVKPSETLSLTCTVSGGSISSRSYYWGWIRQPPGKGLEWIGSIYYNGRTYYNPSLKSRVTISVDTSKNQFSLKLSSVTAADTAVYYCAREDYGDYGAFDIWGQGTMVTVSS
VL: AIQLTQSPSSLSASVGDRVTITCRASQGISSALAWYQQKPGKAPKLLIYDASSLESGVPSRFSGSGSGTDFTLTISSLQPEDFATYYCQQFNSYPLTFGGGTKVEIKR
